# Measured values published in US20210009693A1 (MABSPACE BIOSCIENCES SUZHOU, published 2021).
# Where a chain is given by its changes, count along the chain named. Names may count otherwise. Read-outs that look alike come from different tables or passages of the source.
# B1: 21F11-C (antibody, V domains shown)
# VH: QVQLQQPGAELVKPGASVKLSCKASGYTFTSNWMHWVKQRPGQGLEWIGMMHPNSGSINYNEKFKNKATLTADKSSSTAYMQLSSLTSEDSAVYYCARSYYGSSPYYFDYWGQGTTLTVSS
# VL: DIQMTQTTSSLSASLGDRVTISCRASQDISNYLNWYQQKPDGTVKLLIYYTSRLHSGVPSRFSGSGSGTDFSLTISNLEEEDIATYFCQQGDTLPWTFGGGTKLEIK
# notes: Mouse variable regions fused to a human IgG1 constant region; also called 21F11-chimeric; chimeric antibody 21F11
# B2: 26F5-C (antibody, V domains shown)
# VH: QVQLQQPGAELVKPGASVKLSCKASGYTFPSYWMHWMKQRPGQGLEWIGMIQPSTSGTIYNERFKNQVTLTVDKSSSTAYMQLSSQTSEDSAVYYCARGTGTVDYFDYWGQGTTLTVSS
# VL: DIVLTQSPASLAVSLGQRATISCRASESVDSYGNSFIHWYQQKPGQPPKLLIHRASNLESGIPATFSGSGSRTDFTLTINPVEADDVATYYCQQSKEDPYTFGGGTKLEIK
# notes: Mouse variable regions fused to a human IgG1 constant region; also called 26F5-chimeric; chimeric antibody 26F5
# B3: 23F11-H4L4 (produced in CHO cells) (antibody, V domains shown)
# VH: QVQLVQSGAEVKKPGASVKLSCKASGYIFTTYWMHWVKQRPGQGLEWIGMIQPNSGGTKYNEKFKKKATLTVDKSISTAYMELSRLTSDDTAVYYCARGAGTVDYFDYWGQGSTLTVSS
# VL: B2 VL with L15V, S22T, S31I, I37M, H53Y, T65R, D85Q, V87T, K96T
# notes: also called 23F11-H4L4 (CHO cell derived); 23F11 H4L4 CHO
# B4: 23A11-H3L5 (antibody, V domains shown)
# VH: B3 VH with Q1L, M34I, E62D, K63Q, K66N, K67R, S113T, T116S, V117I
# VL: DIVLTQSPASLAVSVGQRATITCRASESVDIYGNSFMHWYQQKPGQAPKLLIYRASNLESGIPARFSGSGSRTDFTLTINPVEANDTATYYCQQSNDDPYTFGGGTKLETK
# notes: Human IgG1 constant region with N297A; biotinylated in the alanine-scan ELISA; also called 23A11-H3L5-bio; humanized 23A11
# B5: 23A11-H3L5 CHO (antibody, V domains shown)
# VH: B3 VH with M34I, E62D, K63Q, K66N, K67R, S113T, T116S, V117I
# VL: B4 VL with N85Q
# notes: CHO-produced counterpart of m16; also called 23A11-H3L5 produced in CHO cells
# Columns and labels:
# [1] = molecular target: T1, Recombinant Human PD-L1/CD274 Protein (hPD-L1-his) (human, UniProt Q9NZQ7 19-238); assay: ELISA on coated hPD-L1-his; bound at pH7.4, then 2 h at pH5.5
# T1 construct: range 19-238; ACRO Biosystem PD1-H5229, made in HEK293; also called human PD-L1-his; hPD-L-his
# [2] = molecular target: T1, Recombinant Human PD-L1/CD274 Protein …; assay: ELISA on coated hPD-L1-his; bound at pH7.4, then 2 h at pH7.4
# [3] = molecular target: T2, human PD-L1 expressed on cells (human, UniProt Q9NZQ7 19-290); assay: FACS, IFN-gamma stimulated HCC827 cells
# T2 construct: whole, on cells; also called hPD-L1 expressed on HCC827; hPD-L1 on MC38/hPD-L1 cells
# Protocol: Log phase IFN-γ stimulated (500U/ml for 2 days) HCC827 cells were collected and resuspended in blocking buffer (5% BSA+PBS). 2×10\hat{ }5 cells were added to each tube and then washed once with PBS (1500 rpm, 5 mins, RT). The 100 μl/tube serial diluted biotinylated PD-L1 antibodies with blocking buffer were added into corresponding tubes and incubate at 4° C. for 1 hr.
# [4] = molecular target: T1, Recombinant Human PD-L1/CD274 Protein …; assay: ELISA on coated hPD-L1-his; bound at pH7.4, then 2 h at pH5.5; remark: listed apart in the source
# [5] = molecular target: T1, Recombinant Human PD-L1/CD274 Protein …; assay: ELISA on coated hPD-L1-his; bound at pH7.4, then 2 h at pH7.4; remark: listed apart in the source
# [6] = molecular target: T2, human PD-L1 expressed on cells; assay: blocking FACS on HCC827 cells; blocked ligand: biotinylated hPD-1-N297A
# Protocol: (§1) Log phase IFN-γ stimulated (500U/ml for 2 days) HCC827 cells were collected and resuspended in blocking buffer (5% BSA+PBS). 2×10\hat{ }5 cells were added to each tube and then washed once with PBS (1500 rpm, 5 mins, RT). The 100 μl/tube serial diluted PD-L1 antibodies (see FIG. 8) with blocking buffer were added into corresponding tubes and incubate at 4° C. for 1 hr. […] After washing for three times with PBS, 100 μl/tube streptavidin-PE 1:200 (EBiosciences) in blocking buffer was added to each tube. The cells were incubated at 4° C. for 1 hr and then washed twice with PBS, followed by resuspending cells in 150 μl PBS for each sample. The cells were then transferred into FACS tube and the binding of the antibodies to the cells were detected with flow cytometry (ACEA Bioscience Novocyte).
# [7] = molecular target: T1, Recombinant Human PD-L1/CD274 Protein …; assay: ELISA on coated hPD-L1-his; bound at pH7.4, then 2 h at pH5.5; remark: listed apart in the source
# [8] = molecular target: T1, Recombinant Human PD-L1/CD274 Protein …; assay: ELISA on coated hPD-L1-his; bound at pH7.4, then 2 h at pH7.4; remark: listed apart in the source
# [9] = molecular target: T2, human PD-L1 expressed on cells; assay: blocking FACS on HCC827 cells; blocked ligand: biotinylated hPD-1-N297A; remark: listed apart in the source
# Protocol: as §1, with “RT).” for “RT). The 100 μl/tube serial diluted PD-L1 antibodies (see FIG. 8) with blocking buffer were added into corresponding tubes and incubate at 4° C. for 1 hr.”, “1:200” for “1:200 (EBiosciences)”, “Novocyte) (see FIGS. 20A and 20B).” for “Novocyte).”
# [10] = molecular target: T1, Recombinant Human PD-L1/CD274 Protein …; assay: ELISA on coated hPD-L1-his
# [11] = molecular target: T3, wild type human PD-L1-Fc protein (SEQ ID NO: 107) (human); assay: ELISA on captured PD-L1-Fc, as in Example 18A
# T3 construct: Extracellular human PD-L1 (amino acid 19-238) with Fc fragment of human IgG1, expressed in 293T cells and used as culture supernatant; also called WT PD-L1; wild-type PD-L1
# [12] = molecular target: T4, human PD-L1-Fc mutant E58A (human); assay: ELISA on captured PD-L1-Fc, as in Example 18A
# T4 construct: Position 58 counts on native human PD-L1 (NP_054862.1); also called E58A mutant
# [13] = molecular target: T2, human PD-L1 expressed on cells; assay: FACS, IFN-gamma stimulated HCC827 cells; remark: listed apart in the source
# [14] = molecular target: hPD-L1 (antigen of the Biacore assay) (human, UniProt Q9NZQ7 19-238, limits assumed); assay: SPR (Biacore), antibody captured on anti-human Fc, antigen in flow
# Summary of the method: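 Antibody captured to 200–300 RU on an anti-human Fc CM5 surface, with an uncaptured flow cell as reference; antigen injected at varying concentrations, 180 s association, in HBS-EP pH 7.4. Regeneration with glycine pH 1.5 for 120 s; reference-subtracted signals evaluated.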
# [15] = molecular target: T1, Recombinant Human PD-L1/CD274 Protein …; assay: ELISA, coated hPD-L1-his, acidic wash and incubation after binding at pH7.4
# Protocol: (§2) The pH-dependent binding affinity was further measured at various pH values, such as pH4, pH4.5, pH5.0, pH5.5, pH6.0, pH7.4. The measurement by ELISA was conducted similarly to the method described above. High-binding clear polystyrene 96 well plates were coated with 100 μl/well of a 0.5 μg/ml hPD-L1-his in high pH coating buffer and incubated overnight at 4° C. Then the coated plates were washed 3 times with shaking for 10s on an automatic plate washer with PBS+0.1% Tween 20 (Amresco). Then 200 μl of blocking buffer (1% BSA (Solarbio)+1% normal goat serum (Solarbio)+0.05% Tween 20 (Amresco)) was added to each well and the plates were then incubated for 2 hours at room temperature and washed 3 times as above. […] The plates were then washed once with 250 μl/well washing buffer at pH7.4, pH6.0, pH5.5, pH5.0, pH4.5 or pH4.0 and then 100 μl/well pH7.4 or pH5.5 washing buffer was added and the incubation was continued for 2 hours at RT with shaking. Afterwards, the plates was washed 3 times washing buffer at pH7.4 and 100 μl/well of a solution of HRP conjugated goat anti-hIgG HRP antibody (1:20000, Abcam) in pH7.4 dilution buffer was then added to each well of the plate. After that the plates were allowed to incubate for 60 min at room temperature followed by washing 3 times with 250 μl/well pH7.4 washing buffer. Finally, 100 μl/well of TMB was added to each well for 15 min and the reaction was terminated using 50 μl/well of 0.16M/L sulfuric acid. The plates were read on a Thermo Multiscan FC at 450 nm (see FIG. 23A-23F). The measurements were performed in triplicate.
# [16] = molecular target: T1, Recombinant Human PD-L1/CD274 Protein …; assay: ELISA on coated hPD-L1-his; bound at pH7.4, then 2 h at pH7.4; remark: listed apart in the source
# Protocol: as §2
# [17] = molecular target: T1, Recombinant Human PD-L1/CD274 Protein …; assay: ELISA on coated hPD-L1-his; bound at pH7.4, then 2 h at pH5.5; remark: listed apart in the source
# Protocol: as §2, with “Finally, 100 μl/well of TMB was added to each well for 15 min and the reaction was terminated using 50 μl/well of 0.16M/L sulfuric acid.” left out, “The measurements were performed in triplicate.” left out
# [18] = molecular target: T5, Human PD-L1/CD274 with C-Fc Tag (hPD-L1-Fc) (human, UniProt Q9NZQ7 19-238); assay: blocking ELISA on coated hPD-L1-Fc; blocked ligand: biotinylated hPD-1-N297A
# T5 construct: range 19-238; ACRO Biosystem PD1-H5258, made in HEK293; also called human PD-L1-Fc; not shown: Fc fragment of human IgG1 at C-terminus
# [19] = molecular target: T1, Recombinant Human PD-L1/CD274 Protein …; assay: ELISA on coated hPD-L1-his; bound at pH7.4, then 2 h at pH5.5; remark: listed apart in the source
# [20] = molecular target: T1, Recombinant Human PD-L1/CD274 Protein …; assay: ELISA on coated hPD-L1-his; bound at pH7.4, then 2 h at pH7.4; remark: listed apart in the source
# T3 sequence (chain, as listed by the source limits assumed): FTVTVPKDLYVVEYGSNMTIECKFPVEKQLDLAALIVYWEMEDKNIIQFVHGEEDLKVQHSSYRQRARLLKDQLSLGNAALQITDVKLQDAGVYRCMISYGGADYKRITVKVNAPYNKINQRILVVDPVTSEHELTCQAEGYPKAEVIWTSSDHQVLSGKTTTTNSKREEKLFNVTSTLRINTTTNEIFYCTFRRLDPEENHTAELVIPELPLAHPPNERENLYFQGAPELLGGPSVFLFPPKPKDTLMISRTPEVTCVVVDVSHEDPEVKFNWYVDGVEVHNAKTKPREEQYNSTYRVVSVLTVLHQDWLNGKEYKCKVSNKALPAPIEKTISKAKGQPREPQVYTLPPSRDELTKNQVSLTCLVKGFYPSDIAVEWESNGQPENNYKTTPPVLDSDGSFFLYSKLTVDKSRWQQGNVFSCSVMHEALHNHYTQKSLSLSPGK
# T1 sequence (Q9NZQ7 other isoform, or with tags, fused parts or gaps limits assumed): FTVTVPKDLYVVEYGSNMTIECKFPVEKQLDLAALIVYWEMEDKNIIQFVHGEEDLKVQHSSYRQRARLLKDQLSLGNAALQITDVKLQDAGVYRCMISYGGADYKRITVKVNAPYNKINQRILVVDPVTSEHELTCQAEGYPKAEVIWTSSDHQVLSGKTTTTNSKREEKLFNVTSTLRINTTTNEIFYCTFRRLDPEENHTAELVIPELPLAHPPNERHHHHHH
# T4 sequence (chain, as listed by the source E58A E58A limits assumed): as the sequence (chain, as listed by the source limits assumed) above, with E40A counted along it
# T2 sequence (Q9NZQ7 19-290): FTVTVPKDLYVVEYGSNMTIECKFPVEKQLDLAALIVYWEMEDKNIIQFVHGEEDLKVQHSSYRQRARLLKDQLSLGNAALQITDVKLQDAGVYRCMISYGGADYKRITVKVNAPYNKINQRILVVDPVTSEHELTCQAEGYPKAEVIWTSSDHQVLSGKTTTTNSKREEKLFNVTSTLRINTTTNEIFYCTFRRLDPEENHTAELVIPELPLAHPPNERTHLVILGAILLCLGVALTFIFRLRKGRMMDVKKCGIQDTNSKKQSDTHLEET
# Chain of hPD-L1 (antigen of the Biacore assay) (Q9NZQ7 19-238 limits assumed): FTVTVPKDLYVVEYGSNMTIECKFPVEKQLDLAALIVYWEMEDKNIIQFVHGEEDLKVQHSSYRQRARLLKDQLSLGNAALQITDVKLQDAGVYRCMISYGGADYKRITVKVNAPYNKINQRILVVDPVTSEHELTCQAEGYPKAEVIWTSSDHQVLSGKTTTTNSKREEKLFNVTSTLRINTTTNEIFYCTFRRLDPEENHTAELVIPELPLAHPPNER
# T5 sequence (Q9NZQ7 19-238 limits assumed): as above
binder,measurement,setting,value
B1,EC50 (read off the curve),[1],~0.01 µg/mL
same,EC50 (read off the curve),[2],~0.01 µg/mL
B2,EC50 (read off the curve),[3],~0.1 µg/mL
same,EC50 (read off the curve),[4],~0.02 µg/mL
same,EC50 (read off the curve),[5],~0.01 µg/mL
same,IC50 (read off the curve),[6],~0.09 µg/mL
B3,EC50 (read off the curve),[7],~0.009 µg/mL
same,EC50 (read off the curve),[8],~0.008 µg/mL
same,IC50 (read off the curve),[9],~0.06 µg/mL
B4,EC50 (read off the curve),[10],~0.002 µg/mL
same,Mean OD450,[11],1.34 OD450
same,OD450 nM of sample-1,[11],1.22 OD450
same,OD450 nM of sample-2,[11],1.47 OD450
same,% of binding of Ab to E58A mutant vs. that to WT PD-L1,[12],8.3%
same,Mean OD450,[12],0.111 OD450
same,OD450 nM of sample-1,[12],0.128 OD450
same,OD450 nM of sample-2,[12],0.094 OD450
same,EC50 (read off the curve),[13],~0.02 µg/mL
same,Kd,[14],43.2 nM
same,koff,[14],0.0223 s⁻¹
same,kon,[14],517000 M⁻¹ s⁻¹
same,binding signal at pH5 as percent of the signal at pH7.4,[15],< 50%
same,binding signal at pH5.5 as percent of the signal at pH7.4,[15],< 75%
same,EC50 (read off the curve),[16],~0.01 µg/mL
same,EC50 (read off the curve),[17],~0.02 µg/mL
same,IC50 (read off the curve),[9],~0.05 µg/mL
same,IC50 (read off the curve),[18],~0.05 µg/mL
B5,EC50 (read off the curve),[19],~0.008 µg/mL
same,EC50 (read off the curve),[20],~0.006 µg/mL
same,IC50 (read off the curve),[9],~0.05 µg/mL
